Here are results for 6 molecules from patent US20150056222A1 (Regeneron, published 2015).

Experiment [1] has as its target T1, hPRLR.mmh (soluble monomeric human PRLR) (human).
T1 construct: soluble monomeric construct
T1 chain: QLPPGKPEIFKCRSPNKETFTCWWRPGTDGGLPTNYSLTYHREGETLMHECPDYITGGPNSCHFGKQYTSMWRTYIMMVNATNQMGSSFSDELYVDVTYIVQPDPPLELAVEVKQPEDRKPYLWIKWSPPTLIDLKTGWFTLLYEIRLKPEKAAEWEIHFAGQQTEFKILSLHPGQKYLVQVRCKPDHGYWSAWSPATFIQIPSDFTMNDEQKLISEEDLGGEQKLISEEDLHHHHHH
Description: SPR, 37C, mAb capture. The method, then:
(§1) Measurements were conducted on a T200 Biacore instrument. Kinetic association (kₐ) and dissociation (kd) rate constants were determined by processing and fitting the data to a 1:1 binding model using Scrubber 2.0 curve fitting software. Binding dissociation equilibrium constants (KD) and dissociative half-lives (t_{1/2}) were calculated from the kinetic rate constants as: KD (M)=kd/kₐ; and […].
On the technique in general: SPR reads the build-up and loss of mass on a sensor chip optically.

The target of experiment [2] is T2, hPRLR.mFc (soluble dimeric human PRLR) (human).
T2 construct: dimeric construct
T2 chain: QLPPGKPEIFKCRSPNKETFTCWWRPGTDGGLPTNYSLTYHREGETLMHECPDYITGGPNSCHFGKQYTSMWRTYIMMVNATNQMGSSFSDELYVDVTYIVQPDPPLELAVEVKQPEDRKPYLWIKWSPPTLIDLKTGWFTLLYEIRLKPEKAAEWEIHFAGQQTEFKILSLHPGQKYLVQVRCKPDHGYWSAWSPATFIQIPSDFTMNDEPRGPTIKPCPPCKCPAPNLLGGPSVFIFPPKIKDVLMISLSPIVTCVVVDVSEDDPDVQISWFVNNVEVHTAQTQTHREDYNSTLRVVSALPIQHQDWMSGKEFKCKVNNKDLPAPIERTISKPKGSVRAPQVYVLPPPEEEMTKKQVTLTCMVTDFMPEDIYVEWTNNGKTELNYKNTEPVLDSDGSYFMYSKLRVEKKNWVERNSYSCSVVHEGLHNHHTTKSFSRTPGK
Description: SPR, 37C, mAb capture. The method, then:
as §1

Experiment [3] has as its target T3, mfPRLR.mmh (soluble monomeric macaca fascicularis PRLR) (macaca fascicularis).
T3 construct: soluble monomeric construct; also called macaca fascicularis (mf) PRLR.mmh
T3 chain: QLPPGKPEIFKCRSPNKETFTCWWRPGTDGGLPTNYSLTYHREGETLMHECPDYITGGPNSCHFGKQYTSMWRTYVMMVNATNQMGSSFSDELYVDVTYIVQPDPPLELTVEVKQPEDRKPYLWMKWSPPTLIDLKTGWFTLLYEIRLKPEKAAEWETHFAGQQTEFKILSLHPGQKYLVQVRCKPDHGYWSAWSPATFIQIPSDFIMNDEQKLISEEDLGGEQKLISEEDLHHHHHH
Description: SPR, 37C, mAb capture. The method, then: as §1

The target of experiment [4] is T4, human prolactin receptor (PRLR) on cells (human, UniProt P16471 25-622).
T4 sequence: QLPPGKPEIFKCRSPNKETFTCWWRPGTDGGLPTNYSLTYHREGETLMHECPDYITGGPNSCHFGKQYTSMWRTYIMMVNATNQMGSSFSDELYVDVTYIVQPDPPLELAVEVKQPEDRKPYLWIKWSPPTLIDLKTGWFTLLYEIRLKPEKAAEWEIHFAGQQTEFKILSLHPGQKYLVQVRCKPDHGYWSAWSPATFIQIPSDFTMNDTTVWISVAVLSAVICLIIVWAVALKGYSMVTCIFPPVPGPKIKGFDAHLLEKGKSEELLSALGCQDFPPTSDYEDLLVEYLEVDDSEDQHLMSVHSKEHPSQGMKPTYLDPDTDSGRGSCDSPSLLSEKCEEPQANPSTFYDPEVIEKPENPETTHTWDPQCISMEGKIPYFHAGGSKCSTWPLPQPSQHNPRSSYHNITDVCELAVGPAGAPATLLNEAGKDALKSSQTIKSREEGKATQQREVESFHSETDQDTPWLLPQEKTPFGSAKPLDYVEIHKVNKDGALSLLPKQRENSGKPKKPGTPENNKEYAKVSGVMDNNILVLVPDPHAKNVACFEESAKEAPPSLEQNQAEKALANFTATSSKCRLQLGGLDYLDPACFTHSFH
Description: cell-based or functional assay.

In experiment [5] the target is T4, human prolactin receptor (PRLR) on cells. The experiment in a line: FACS, HEK293/hPRLR cells. Further: test concentration or dose not given here.
In experiment [6] the target is T5, monkey (macaca fascicularis) PRLR on HEK293 cells (macaca fascicularis, UniProt A0A2K5WXK1 25-619).
T5 construct: also called mfPRLR; HEK293/mfPRLR
T5 sequence: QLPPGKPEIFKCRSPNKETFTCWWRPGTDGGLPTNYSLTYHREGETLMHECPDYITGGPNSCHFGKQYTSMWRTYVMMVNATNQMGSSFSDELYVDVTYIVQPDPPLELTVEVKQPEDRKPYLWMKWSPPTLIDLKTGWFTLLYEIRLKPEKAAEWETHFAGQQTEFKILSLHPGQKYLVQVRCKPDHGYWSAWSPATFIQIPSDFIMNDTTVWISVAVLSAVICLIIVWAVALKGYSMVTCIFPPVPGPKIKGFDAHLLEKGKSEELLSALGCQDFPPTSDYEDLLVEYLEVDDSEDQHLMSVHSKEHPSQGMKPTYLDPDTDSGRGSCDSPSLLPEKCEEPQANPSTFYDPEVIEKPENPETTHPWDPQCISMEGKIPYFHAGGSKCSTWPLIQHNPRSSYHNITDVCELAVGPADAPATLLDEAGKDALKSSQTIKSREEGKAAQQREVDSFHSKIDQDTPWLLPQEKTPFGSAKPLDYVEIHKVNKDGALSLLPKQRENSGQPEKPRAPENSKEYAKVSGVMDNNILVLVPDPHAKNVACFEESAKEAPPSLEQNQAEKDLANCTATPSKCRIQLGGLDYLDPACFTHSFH
Description: FACS, HEK293/mfPRLR cells. Further: test concentration or dose not given here. Background: Flow cytometry measures light scatter and fluorescence of single cells or particles in a stream.

Experiment [7] has as its target T4, human prolactin receptor (PRLR) on cells. The experiment in a line: FACS, T47D cells (native PRLR). Further: test concentration or dose not given here.
Experiment [8] has as its target T6, mouse PRLR on HEK293 cells (mouse, UniProt Q08501 20-608).
T6 construct: whole, on cells; also called mPRLR; HEK293/mPRLR
T6 sequence (looked up): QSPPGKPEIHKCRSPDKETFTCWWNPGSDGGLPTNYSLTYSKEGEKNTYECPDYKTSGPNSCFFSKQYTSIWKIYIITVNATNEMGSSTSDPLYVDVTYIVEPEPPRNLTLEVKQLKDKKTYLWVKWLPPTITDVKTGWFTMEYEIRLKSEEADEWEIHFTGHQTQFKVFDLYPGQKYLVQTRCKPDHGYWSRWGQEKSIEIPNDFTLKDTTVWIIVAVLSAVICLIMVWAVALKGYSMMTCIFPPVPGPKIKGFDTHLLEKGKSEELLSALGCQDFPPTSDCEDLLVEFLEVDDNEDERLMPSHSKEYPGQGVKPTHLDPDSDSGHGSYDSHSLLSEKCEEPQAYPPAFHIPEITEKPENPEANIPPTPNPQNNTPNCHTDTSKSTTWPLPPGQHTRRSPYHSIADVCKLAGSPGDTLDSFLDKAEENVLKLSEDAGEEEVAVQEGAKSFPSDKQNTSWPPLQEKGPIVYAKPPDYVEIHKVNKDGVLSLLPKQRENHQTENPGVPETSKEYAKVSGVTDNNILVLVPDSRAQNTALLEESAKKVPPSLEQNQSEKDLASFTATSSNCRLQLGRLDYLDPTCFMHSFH
The experiment in a line: FACS, HEK293/mPRLR cells. Further: test concentration or dose not given here.

B1: H1H6801P (antibody, human IgG1, V domains shown)
VH: QVQLQQSGPGLVKPSQTLSLTCVISGDSVSSNTAWNWVRQSPSRGLEWLGRTYYRSKWYNDYAVSVKSRITINPDTSKNQFSLLMNSVTPEDTAVYYCARVVRGLNYFDYWGQGTLVTVSS
VL: DIVMTQSPDSLAVSLGERATINCKSSQSVLYNSNNKNYLAWYQQKPGQPPKLLIYWSSSRESGVPDRFSGSGSGTDFTLTISGLQAEDVAIYYCQQYSTIPYTFGQGTKLEIK
notes: human IgG1 Fc (H1H)
As for B1, the T½ worked out at 3 min in experiment [1], 52 min in experiment [2] and 1 min in experiment [3]. The “% Internalization relative to Control I (alexa488 intensity in intracellular vesicles at 37 C, T47D cells)” value (“% Internalization relative to Control I” below) in experiment [4] turned out to be 149%. The “FACS Cell Binding (Fold Above Background)” value in experiment [5] is 47 fold above background; in experiment [6] it was 88 fold above background; in experiment [7], 45 fold above background.

B2: H1H6803P (antibody, human IgG1, V domains shown)
VH: EVQLVESGGGVVRPGGSLRLSCAASGFKFDDYGMTWVRHVPGKGLEWVSGINWNGGRTGYTDSVKGRFTISRDNAKNSLYLQMNSLRAEDTALYHCAGARRDAFDIWGQGTMVTVSS
VL: DIQMTQSPSSLSASIGDRVTITCRASQNIIKYLNWYQQNAGKAPKLLIYTASSLQSGVPSRFSGSGSGTDFTLTISSLQPEDFATYYCQQSSSSPYTFGQGTKLEIK
notes: human IgG1 Fc (H1H)
Turning to B2, the T½ in experiment [1] worked out at 32 min; in experiment [2] it was 186 min; in experiment [3], 18 min. The “% Internalization relative to Control I” value in experiment [4] was determined as 190%. Besides, the “FACS Cell Binding (Fold Above Background)” value in experiment [5] came out at 39 fold above background; in experiment [8], 1 fold above background; in experiment [6], 28 fold above background; in experiment [7], 39 fold above background.

B3: H1H6800P (antibody, human IgG1, V domains shown)
VH: EVQLVESGGGLVQPGRSLRLSCAASGFTFDGYAMHWVRQGPGKGLEWVSGISWYSDTLGYADSVKGRFTISRDNAKNSLYLQMNSLRTEDTAFYYCAKISSSGWAFDYWGQGTLVTVSS
VL: EIVLTQSPGTLSLSPGERATLSCRASHSVSSAYLAWYQQKPGQTPRLLIYGTSSRATGIPDRFSGSGSGTDFTLTISRLEPEDFAVYYCQQYGSSPLFTFGPGTKVDIK
notes: human IgG1 Fc (H1H)
On to B3, for which the T½ in experiment [1] is 10 min; in experiment [2] it was 79 min; in experiment [3] it was 11 min. Moreover, the “% Internalization relative to Control I” value in experiment [4] is 198%. Also, the “FACS Cell Binding (Fold Above Background)” value came to 35 fold above background in experiment [5], 1 fold above background in experiment [8], 29 fold above background in experiment [6] and 41 fold above background in experiment [7].

B4: H1H6975N (antibody, human IgG1, V domains shown)
VH: EVHLVESGGGLVQPGGSLRLSCAASGFTFSSYEMNWVRQTPGKGLEWISHISSRSVIIYYADSVKGRFTISRDNAKNSLFLQMNSLRAEDTAVYFCAGITIFGIPEYWGQGTLVTVSS
VL: EIVLTQSPATLSLSPGERATLSCRASQSVSSYFAWYQQKPGQAPRLLIYDASSRATGIPTRFSGSGSGTDFTLTISSLEPEDFAVYYCQQRSSWPITFGQGTRLEIK
notes: also called H2M6975N
Turning to B4, the T½ turned out to be 42.3 min in experiment [1], 163 min in experiment [2] and 36.4 min in experiment [3]. Besides, in experiment [4], the “% Internalization relative to Control I” value was found to be 214%. Besides, the “FACS Cell Binding (Fold Above Background)” value amounted to 38 fold above background in experiment [5], 1 fold above background in experiment [8], 29 fold above background in experiment [6] and 46 fold above background in experiment [7].

B5: H1H6959N2 (antibody, human IgG1, V domains shown)
VH: EVQLVESGGGLVQPGRSLRLSCAASGFTFDDYAMHWVRQAPGKGLEWVSGISWHSGIIGYADSVKGRFTISRDNAKNSLYLQMNSLRTEDAALYYCAKIGSYFYFDSWGQGTLVTVSS
VL: EIVLTQSPGTLSLSPGERATLSCRASQSVSSNYLAWYQQKPGQAPRLLIYGASSRATGIPDRFSGSGSGTDFTLTISRLEPEDFAVYYCQQFGSSGYTFGQGTNLEIK
notes: also called H2M6959N2
B5: the T½ in experiment [1] was determined as 0.4 min; in experiment [2] it was 5 min. In experiment [4], the “% Internalization relative to Control I” value was 15.3%. Moreover, the “FACS Cell Binding (Fold Above Background)” value in experiment [5] turned out to be 6 fold above background; in experiment [8], 2 fold above background; in experiment [6], 11 fold above background; in experiment [7], 9 fold above background.

B6: H1H6762P (antibody, human IgG1, V domains shown)
VH: QVQLVESGGGVVQPGRSLRLSCAASGFTFSHYGMVWVRQPPGKGLEWVALISFDGTTKYYADSVKGRFTISRDNSKNTLYLQMNSLRAEDTAVYFCVGAIAAAAFDLWGRGTLVTVSS
VL: EIVMTQSPATLSVSPGERATLSCRASQSVSSDLAWYQQKPGQAPRLLIYSASARATGIPARFTGSGSGTDFTLTISSLQSEDFAVYYCQQYNNWPMYTFGQGTKLEIK
notes: human IgG1 Fc (H1H)
Consider B6, for which the T½ was found to be 25 min in experiment [1], 112 min in experiment [2] and 21 min in experiment [3]. In addition, in experiment [4], the “% Internalization relative to Control I” value was determined as 186%. For the same molecule, the “FACS Cell Binding (Fold Above Background)” value in experiment [5] was 36 fold above background; in experiment [8], 2 fold above background; in experiment [6] it was 26 fold above background; in experiment [7], 38 fold above background.
